{
  "source": "paper PMC4627070",
  "molecular_target": "T1, gp32 (gene 32 protein, ssDNA-binding protein) (bacteriophage T4, UniProt P03695 1-301)",
  "T1 sequence": "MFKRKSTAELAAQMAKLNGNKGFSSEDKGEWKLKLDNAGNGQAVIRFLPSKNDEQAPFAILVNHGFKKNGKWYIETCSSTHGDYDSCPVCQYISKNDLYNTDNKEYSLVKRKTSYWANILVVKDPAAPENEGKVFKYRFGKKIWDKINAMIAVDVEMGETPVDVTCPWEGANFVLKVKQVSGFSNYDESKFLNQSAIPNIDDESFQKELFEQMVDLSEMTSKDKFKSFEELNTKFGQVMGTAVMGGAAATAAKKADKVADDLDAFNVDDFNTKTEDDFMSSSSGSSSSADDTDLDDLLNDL",
  "test": "fluorescence titration",
  "data": [
    {"binder": "TTTTTAAT (ssDNA, 2-aminopurine at positions 6,7 (written as A))", "note": "[8P6,7]", "values": [
      {"measurement": "Kd", "result": "10.3 ± 1", "unit": "µM"}
    ]},
    {"binder": "AAAAAAAA (ssDNA, 2-aminopurine at positions 2,3 (written as A))", "note": "[8A2,3]", "values": [
      {"measurement": "Kd", "result": "4.1 ± 0.4", "unit": "µM"}
    ]},
    {"binder": "AAAAAAAA (ssDNA, 2-aminopurine at positions 6,7 (written as A))", "note": "[8A6,7]", "values": [
      {"measurement": "Kd", "result": "3.2 ± 0.3", "unit": "µM"}
    ]},
    {"binder": "TTTAATTT (ssDNA, 2-aminopurine at positions 4,5 (written as A))", "note": "[8P4,5]", "values": [
      {"measurement": "Kd", "result": "4.2 ± 0.4", "unit": "µM"}
    ]},
    {"binder": "TAATTTTT (ssDNA, 2-aminopurine at positions 2,3 (written as A))", "note": "[8P2,3]", "values": [
      {"measurement": "Kd", "result": "3.5 ± 0.4", "unit": "µM"}
    ]}
  ]
}
